In article PMC5570898:

Molecular target: CHL1 on ventral midbrain dopaminergic neurons (mouse (endogenous in ventral midbrain primary neurons)) (UniProt P70232)

An increase of TH+ neurite branching in E12.5 VM primary cultures on bound CHL1, against the Fc control of 2.4 fold, an increase of TH+ neurite branching in E12.5 VM primary cultures with soluble CHL1, against the PDL control of 5 fold and an increase of TH+ neurite length in E12.5 VM primary cultures on bound CHL1, against the Fc control of 1.8 fold were found for “CHL1 recombinant protein (from UniProt P70232 26-1083) (natural protein)” in this work. For the same substance, the increase of TH+ neurite length in E12.5 VM primary cultures with soluble CHL1, against the PDL control was 2 fold.
